Results on one substance are retold here after publication PMC3821027.

Where two headings read alike, the source gives them in different places.

For data set [1], the system named is rCTS (TRX-L1 ORF2p CTS, wild type) (Homo sapiens (LRE1 / L1.2 element, pSM42)). Kind of data set: EMSA.
The test system is the same in data set [2]. Nature of the data set: EMSA. The source holds these as a separate data set. Background: In EMSA bound probe runs differently from free probe, usually more slowly.

Consider 380 nt L1 3'UTR RNA, for which the Kd in data set [1] is 0.063 µM; in data set [2], 0.057 µM.

The Kd is the concentration at which binding is half-saturated. Low readings indicate a tighter complex, high ones a looser complex.
